Source: PMC8654305

Target: recombinant N-terminal His6-tagged GlgB (Synechocystis sp. PCC 6803) (UniProt P52981)
Assay: MST

Chain of recombinant N-terminal His6-tagged GlgB (Synechocystis sp. PCC 6803) (P52981 whole entry): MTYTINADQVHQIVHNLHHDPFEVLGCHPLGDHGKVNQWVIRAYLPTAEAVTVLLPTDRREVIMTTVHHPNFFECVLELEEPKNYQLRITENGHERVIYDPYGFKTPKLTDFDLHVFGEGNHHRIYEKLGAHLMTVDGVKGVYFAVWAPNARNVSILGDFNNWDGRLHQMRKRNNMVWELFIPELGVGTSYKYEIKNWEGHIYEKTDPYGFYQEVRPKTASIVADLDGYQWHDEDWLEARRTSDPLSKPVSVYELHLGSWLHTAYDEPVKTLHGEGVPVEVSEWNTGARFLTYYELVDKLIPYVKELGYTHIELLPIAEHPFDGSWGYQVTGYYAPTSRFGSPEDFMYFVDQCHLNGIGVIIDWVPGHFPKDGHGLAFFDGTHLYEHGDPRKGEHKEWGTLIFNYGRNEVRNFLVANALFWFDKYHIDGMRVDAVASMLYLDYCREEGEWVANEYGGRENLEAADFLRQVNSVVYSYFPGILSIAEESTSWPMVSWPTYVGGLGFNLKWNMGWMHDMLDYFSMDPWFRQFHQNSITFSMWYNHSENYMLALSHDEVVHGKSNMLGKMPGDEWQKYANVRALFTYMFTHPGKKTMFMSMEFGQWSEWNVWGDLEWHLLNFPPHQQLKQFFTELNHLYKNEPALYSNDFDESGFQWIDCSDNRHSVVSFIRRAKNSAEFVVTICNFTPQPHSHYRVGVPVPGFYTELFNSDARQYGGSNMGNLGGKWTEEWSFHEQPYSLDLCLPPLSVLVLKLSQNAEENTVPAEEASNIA

- Kd: 220 nM
Substance: recombinant C-terminal StrepII-tagged ScSbtB (SbtB from Synechocystis sp. PCC 6803) (from UniProt P73954 1-110) (natural protein)
